± gives the standard error. Fewer inactive variants are shown than the library holds.
B1: glmS ribozyme (parent)
chain: AUAAAAGCGCCAGAACUACAGAAAUGUAGUUGACGAGGAGGAGGUUUAUCGAAUUUUCGGCGGAUGCCUCCAAA

Assays:
Details in all cases: with glucosamine-6-phosphate
glucosamine-6-phosphate [1] = variants of: B1; assay: self-cleavage kobs at 40 uM GlcN6P; higher = faster cleavage; RNA array
Method in brief: (§1)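 kobs was derived by fitting per-tile medians to one- or two-exponential decays after normalising signals to baseline and to non-cleaving reference variants. Those signals came from barcoded ribozyme variants transcribed in situ by E. coli RNA polymerase on sequenced MiSeq chips, followed through a hybridised Cy3 probe at 37 °C and imaged over ~14 h. Glucosamine-6-phosphate (40 μM to 10 mM) in HEPES/KCl/Mg(OAc)2 buffer was flowed in. Weighted Michaelis–Menten fits across concentrations then gave kcat and KM.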

glucosamine-6-phosphate [2] = variants of: B1; assay: self-cleavage kobs at 10000 uM GlcN6P; higher = faster cleavage; RNA array
Method in brief: as §1

glucosamine-6-phosphate [3] = variants of: B1; assay: self-cleavage kobs at 2500 uM GlcN6P; higher = faster cleavage; RNA array
Method in brief: as §1

glucosamine-6-phosphate [4] = variants of: B1; assay: self-cleavage kobs at 640 uM GlcN6P; higher = faster cleavage; RNA array
Method in brief: as §1

glucosamine-6-phosphate [5] = variants of: B1; assay: self-cleavage kobs at 160 uM GlcN6P; higher = faster cleavage; RNA array
Method in brief: as §1

Row | Variant | self-cleavage kobs at 40 uM GlcN6P (glucosamine-6-phosphate [1]) [s⁻¹] | self-cleavage kobs at 10000 uM GlcN6P (glucosamine-6-phosphate [2]) [s⁻¹] | self-cleavage kobs at 2500 uM GlcN6P (glucosamine-6-phosphate [3]) [s⁻¹] | self-cleavage kobs at 640 uM GlcN6P (glucosamine-6-phosphate [4]) [s⁻¹] | self-cleavage kobs at 160 uM GlcN6P (glucosamine-6-phosphate [5]) [s⁻¹]
1 | A42U G62U C71G | < 1e-05 | < 1e-05 | – | – | –
2 | A6C G66C C68G | < 1e-05 | – | – | – | –
3 | G9A A36C U49C | < 1e-05 | < 1e-05 | < 1e-05 | – | –
4 | A36C C58A U65A C68G | 0.000139 ± 4.3e-05 | – | 0.000116 ± 2.7e-05 | – | –
5 | A12C U46C C50G G63U C67G C68U | 0.000202 ± 7.2e-05 | 0.000454 ± 0.00012 | – | – | –
6 | A15C U30A G41C U45A C58U | < 1e-05 | – | – | – | –
7 | A12G C34G G41C C50U U55A | < 1e-05 | – | – | < 1e-05 | –
8 | G13U G59C | < 1e-05 | < 1e-05 | – | < 1e-05 | –
9 | C10A A33U | < 1e-05 | < 1e-05 | – | – | –
10 | A33C G60U | < 1e-05 | < 1e-05 | – | < 1e-05 | < 1e-05
11 | G62C A64G | < 1e-05 | < 1e-05 | – | < 1e-05 | –
12 | A14G C50A G51A | < 1e-05 | – | < 1e-05 | – | –
13 | G43A G51A | < 1e-05 | < 1e-05 | < 1e-05 | – | < 1e-05
14 | G40A C61U | < 1e-05 | – | – | < 1e-05 | < 1e-05
15 | G44C U46G | < 1e-05 | – | < 1e-05 | < 1e-05 | < 1e-05
16 | G13A C58U C67G | < 1e-05 | – | – | – | –
17 | U49A G62C | < 1e-05 | < 1e-05 | – | – | –
18 | A6C G13U C58A A64C | < 1e-05 | – | < 1e-05 | < 1e-05 | < 1e-05
19 | A15G C50U G60A A64C | < 1e-05 | – | – | – | –
20 | C11A G35A U55A G60U U65A C68G | 0.00461 ± 0.0018 | 5.33e-05 ± 1.7e-05 | – | – | –
21 | A14U G32C C50A C68G | 8.36e-05 ± 3e-05 | 7.34e-05 ± 2.2e-05 | 0.000126 ± 6e-05 | 0.000278 ± 7.7e-05 | –
22 | G29U C34A | < 1e-05 | < 1e-05 | < 1e-05 | – | < 1e-05
23 | U30A A52U U54A C71A | < 1e-05 | – | – | – | –
24 | C16U C34A A39U A52U C70A | < 1e-05 | – | – | < 1e-05 | –
25 | G32U G59U C71G | < 1e-05 | – | – | < 1e-05 | –
